Test results taken from patent publication US5521072.

Assays:
[1] = target: recombinant Actinobacillus pleuropneumoniae serotype 7 60 kDa transferrin binding protein (Actinobacillus pleuropneumoniae serotype 7 strain AP205); assay: competitive ELISA, 50% inhibition value, solid phase porcine transferrin
[2] = target: recombinant Actinobacillus pleuropneumoniae serotype 7 60 kDa transferrin binding protein (Actinobacillus pleuropneumoniae serotype 7 strain AP205); assay: competitive ELISA, 50% inhibition value; competitor preincubated with the recombinant 60 kDa protein, solid phase porcine transferrin

Substance | IC50 [1] [µg/mL] | IC50 [2] [µg/mL]
porcine TF, NH2-terminus (from UniProt P09571) (ligand) | 20 | 
human apotransferrin (from UniProt P02787) (ligand) | > 1000 | 
bovine transferrin, iron replete (from UniProt Q29443) (ligand) | > 1000 | 
porcine transferrin (TF), iron replete (from UniProt P09571) (ligand) |  | 25
human transferrin, iron replete (from UniProt P02787) (ligand) | > 1000 | 
bovine apotransferrin (from UniProt Q29443) (ligand) | > 1000 | 
porcine apotransferrin (from UniProt P09571) (ligand) | 150 | 
